Assay results taken from publication PMC3670040, “Structure of Lipid Kinase p110β/p85β Elucidates an Unusual SH2-Domain-Mediated Inhibitory Mechanism” (Molecular Cell, 2011).

Molecular target: T1, Mouse His6-p110β(1-1064) (mouse, UniProt Q8BTI9 1-1064)
T1 construct: p110β catalytic subunit of class IA PI3K, mouse, residues 1-1064 (full length); N-terminal extension from pFastBac-HTb printed as [residues removed]; (His6 tag and TEV site); this molecule is used there; also called full-length mouse p110β; p110β catalytic subunit; source: Sf9 cells, recombinant baculoviruses, coinfected with the regulatory subunit; complex purified (HisTrap, Q-Sepharose, …)
T1 sequence (Q8BTI9 whole entry, the tested form may be a part): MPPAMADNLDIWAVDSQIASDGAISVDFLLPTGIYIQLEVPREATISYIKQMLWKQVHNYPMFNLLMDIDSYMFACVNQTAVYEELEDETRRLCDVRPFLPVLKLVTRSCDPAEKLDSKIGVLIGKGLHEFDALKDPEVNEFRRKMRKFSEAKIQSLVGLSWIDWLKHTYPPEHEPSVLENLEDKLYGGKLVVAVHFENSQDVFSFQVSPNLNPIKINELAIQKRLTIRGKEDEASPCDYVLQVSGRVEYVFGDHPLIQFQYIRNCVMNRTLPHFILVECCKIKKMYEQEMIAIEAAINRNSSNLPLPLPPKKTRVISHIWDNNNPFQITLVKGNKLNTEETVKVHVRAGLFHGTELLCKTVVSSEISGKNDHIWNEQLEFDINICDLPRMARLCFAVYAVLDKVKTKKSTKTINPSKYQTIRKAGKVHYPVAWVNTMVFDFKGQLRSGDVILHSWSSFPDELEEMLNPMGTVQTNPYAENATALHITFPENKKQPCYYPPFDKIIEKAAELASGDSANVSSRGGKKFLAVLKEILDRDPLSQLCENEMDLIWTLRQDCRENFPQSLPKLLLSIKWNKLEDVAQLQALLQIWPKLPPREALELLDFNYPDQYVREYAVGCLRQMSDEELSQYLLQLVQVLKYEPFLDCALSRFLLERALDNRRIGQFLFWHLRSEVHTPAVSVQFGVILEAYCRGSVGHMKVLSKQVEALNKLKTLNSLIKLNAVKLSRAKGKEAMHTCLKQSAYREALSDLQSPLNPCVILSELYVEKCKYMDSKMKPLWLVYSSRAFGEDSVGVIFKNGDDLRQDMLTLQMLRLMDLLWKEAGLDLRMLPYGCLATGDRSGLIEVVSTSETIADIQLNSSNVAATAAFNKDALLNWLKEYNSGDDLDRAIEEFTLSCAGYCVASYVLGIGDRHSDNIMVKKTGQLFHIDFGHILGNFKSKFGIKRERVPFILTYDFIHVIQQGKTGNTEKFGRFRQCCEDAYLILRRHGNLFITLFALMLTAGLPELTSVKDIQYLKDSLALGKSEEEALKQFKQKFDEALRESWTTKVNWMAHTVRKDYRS
Assay: crystal structure; mouse His6-p110β(1-1064)/p85β-icSH2(423-722) complex at 4 mg/ml with 20 mM sodium phenyl phosphate and 150 μM GDC0941; 12% PEG 3350, 0.1 M potassium citrate pH 6, 0.4 M lithium sulfate, 22°C; 3.3 Å; one 1:1 complex in the asymmetric unit
Settings: both partners purified

B1: mouse p85β-icSH2 (residues 423–722) (domain or fragment, UniProt O08908 423-722, looked up)
chain: QQDQVVKEDSIEAVGAQLKVYHQQYQDKSREYDQLYEEYTRTSQELQMKRTAIEAFNETIKIFEEQGQTQEKCSKEYLERFRREGNEKEMQRILLNSERLKSRIAEIHESRTKLEQDLRAQASDNREIDKRMNSLKPDLMQLRKIRDQYLVWLTQKGARQRKINEWLGIKNETEDQYSLMEDEDALPHHEERTWYVGKINRTQAEEMLSGKRDGTFLIRESSQRGCYACSVVVDGDTKHCVIYRTATGFGFAEPYNLYGSLKELVLHYQHASLVQHNDALTVTLAHPVRAPGPGPPSAAR
notes: No tag (pFastBac1); also called p85-icSH2; source: Sf9 cells, recombinant baculoviruses, coinfected with p110β; complex purified (HisTrap, Q-Sepharose, heparin, gel filtration)
binding result: binds
